Reference: patent publication US20250026846A1 (JCR PHARMACEUTICALS, published 2025)

T1: recombinant monkey TfR (r monkey TfR: Sino Biological Inc.), crab-eating monkey TfR extracellular region with … (crab-eating monkey (Macaca fascicularis))
T1 construct: Bought from Sino Biological; also called r monkey TfR-ECD (Histag); not shown: histidine tag at the N-terminus
T1 chain: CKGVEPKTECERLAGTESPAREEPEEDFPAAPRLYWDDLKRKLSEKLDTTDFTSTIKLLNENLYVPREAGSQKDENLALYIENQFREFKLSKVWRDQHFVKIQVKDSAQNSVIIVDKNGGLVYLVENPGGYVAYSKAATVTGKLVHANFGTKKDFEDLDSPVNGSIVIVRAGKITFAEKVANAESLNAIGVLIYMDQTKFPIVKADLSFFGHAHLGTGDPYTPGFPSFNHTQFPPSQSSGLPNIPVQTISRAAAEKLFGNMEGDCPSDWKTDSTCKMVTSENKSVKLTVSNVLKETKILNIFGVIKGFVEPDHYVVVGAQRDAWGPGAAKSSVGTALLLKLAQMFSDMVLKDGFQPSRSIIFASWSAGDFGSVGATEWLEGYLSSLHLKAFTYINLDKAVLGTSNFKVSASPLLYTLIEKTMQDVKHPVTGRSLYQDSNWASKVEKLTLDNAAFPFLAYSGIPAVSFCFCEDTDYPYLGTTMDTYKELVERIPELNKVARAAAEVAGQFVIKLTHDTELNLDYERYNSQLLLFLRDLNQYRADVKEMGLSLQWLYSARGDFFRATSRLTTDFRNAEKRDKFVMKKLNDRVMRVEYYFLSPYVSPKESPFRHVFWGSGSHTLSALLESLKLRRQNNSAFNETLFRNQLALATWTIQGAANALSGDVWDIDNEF

B1: Fab GS3-IDUA (other)
light: DIVMTQTPLSLSVTPGQPASISCRSSQSLVHSNGNTYLHWYLQKPGQSPQLLIYKVSNRFSGVPDRFSGSGSGTDFTLKISRVEAEDVGVYYCSQSTHVPWTFGQGTKVEIKRTVAAPSVFIFPPSDEQLKSGTASVVCLLNNFYPREAKVQWKVDNALQSGNSQESVTEQDSKDSTYSLSSTLTLSKADYEKHKVYACEVTHQGLSSPVTKSFNRGEC
heavy: EVQLVQSGAEVKKPGESLKISCKGSGYSFMNYWLGWVRQMPGKGLEWMGDIYPGGDYPTYSEKFKVQVTISADKSISTAYLQLSSLKASDTAMYYCARSGNYDEVAYWGQGTLVTVSSASTKGPSVFPLAPSSKSTSGGTAALGCLVKDYFPEPVTVSWNSGALTSGVHTFPAVLQSSGLYSLSSVVTVPSSSLGTQTYICNVNHKPSNTKVDKKVEPKSCDKTHTGGGGSGGGGSGGGGSAEAPHLVHVDAARALWPLRRFWRSTGFCPPLPHSQADQYVLSWDQQLNLAYVGAVPHRGIKQVRTHWLLELVTTRGSTGRGLSYNFTHLDGYLDLLRENQLLPGFELMGSASGHFTDFEDKQQVFEWKDLVSSLARRYIGRYGLAHVSKWNFETWNEPDHHDFDNVSMTMQGFLNYYDACSEGLRAASPALRLGGPGDSFHTPPRSPLSWGLLRHCHDGTNFFTGEAGVRLDYISLHRKGARSSISILEQEKVVAQQIRQLFPKFADTPIYNDEADPLVGWSLPQPWRADVTYAAMVVKVIAQHQNLLLANTTSAFPYALLSNDNAFLSYHPHPFAQRTLTARFQVNNTRPPHVQLLRKPVLTAMGLLALLDEEQLWAEVSQAGTVLDSNHTVGVLASAHRPQGPADAWRAAVLIYASDDTRAHPNRSVAVTLRLRGVPPGPGLVYVTRYLDNGLCSPDGEWRRLGRPVFPTAEQFRRMRAAEDPVAAAPRPLPAGGRLTLRPALRLPSLLLVHVCARPEKPPGQVTRLRALPLTQGQLVLVWSDEHVGSKCLWTYEIQFSQDGKAYTPVSRKPSTFNLFVFSPDTGAVSGSYRVRALDYWARPGPFSDPVPYLEVPVPRGPPSPGNP
notes: also called Fab HC-GS3-IDUA
B2: Fab GS3-GBA (other)
light: B1 light
heavy: EVQLVQSGAEVKKPGESLKISCKGSGYSFMNYWLGWVRQMPGKGLEWMGDIYPGGDYPTYSEKFKVQVTISADKSISTAYLQLSSLKASDTAMYYCARSGNYDEVAYWGQGTLVTVSSASTKGPSVFPLAPSSKSTSGGTAALGCLVKDYFPEPVTVSWNSGALTSGVHTFPAVLQSSGLYSLSSVVTVPSSSLGTQTYICNVNHKPSNTKVDKKVEPKSCDKTHTGGGGSGGGGSGGGGSARPCIPKSFGYSSVVCVCNATYCDSFDPPTFPALGTFSRYESTRSGRRMELSMGPIQANHTGTGLLLTLQPEQKFQKVKGFGGAMTDAAALNILALSPPAQNLLLKSYFSEEGIGYNIIRVPMASCDFSIRTYTYADTPDDFQLHNFSLPEEDTKLKIPLIHRALQLAQRPVSLLASPWTSPTWLKTNGAVNGKGSLKGQPGDIYHQTWARYFVKFLDAYAEHKLQFWAVTAENEPSAGLLSGYPFQCLGFTPEHQRDFIARDLGPTLANSTHHNVRLLMLDDQRLLLPHWAKVVLTDPEAAKYVHGIAVHWYLDFLAPAKATLGETHRLFPNTMLFASEACVGSKFWEQSVRLGSWDRGMQYSHSIITNLLYHVVGWTDWNLALNPEGGPNWVRNFVDSPIIVDITKDTFYKQPMFYHLGHFSKFIPEGSQRVGLVASQKNDLDAVALMHPDGSAVVVVLNRSSKDVPLTIKDPAVGFLETISPGYSIHTYLWRRQ
notes: also called Fab HC-GS3-GBA
B3: Fab GS3-SGSH (other)
light: B1 light
heavy: EVQLVQSGAEVKKPGESLKISCKGSGYSFMNYWLGWVRQMPGKGLEWMGDIYPGGDYPTYSEKFKVQVTISADKSISTAYLQLSSLKASDTAMYYCARSGNYDEVAYWGQGTLVTVSSASTKGPSVFPLAPSSKSTSGGTAALGCLVKDYFPEPVTVSWNSGALTSGVHTFPAVLQSSGLYSLSSVVTVPSSSLGTQTYICNVNHKPSNTKVDKKVEPKSCDKTHTGGGGSGGGGSGGGGSRPRNALLLLADDGGFESGAYNNSAIATPHLDALARRSLLFRNAFTSVSSCSPSRASLLTGLPQHQNGMYGLHQDVHHFNSFDKVRSLPLLLSQAGVRTGIIGKKHVGPETVYPFDFAYTEENGSVLQVGRNITRIKLLVRKFLQTQDDRPFFLYVAFHDPHRCGHSQPQYGTFCEKFGNGESGMGRIPDWTPQAYDPLDVLVPYFVPNTPAARADLAAQYTTVGRMDQGVGLVLQELRDAGVLNDTLVIFTSDNGIPFPSGRTNLYWPGTAEPLLVSSPEHPKRWGQVSEAYVSLLDLTPTILDWFSIPYPSYAIFGSKTIHLTGRSLLPALEAEPLWATVFGSQSHHEVTMSYPMRSVQHRHFRLVHNLNFKMPFPIDQDFYVSPTFQDLLNRTTAGQPTGWYKDLRHYYYRARWELYDRSRDPHETQNLATDPRFAQLLEMLRDQLAKWQWETHDPWVCAPDGVLEEKLSPQCQPLHNEL
notes: also called Fab HC-GS3-SGSH
B4: Fab GS3-ASM (other)
light: B1 light
heavy: EVQLVQSGAEVKKPGESLKISCKGSGYSFMNYWLGWVRQMPGKGLEWMGDIYPGGDYPTYSEKFKVQVTISADKSISTAYLQLSSLKASDTAMYYCARSGNYDEVAYWGQGTLVTVSSASTKGPSVFPLAPSSKSTSGGTAALGCLVKDYFPEPVTVSWNSGALTSGVHTFPAVLQSSGLYSLSSVVTVPSSSLGTQTYICNVNHKPSNTKVDKKVEPKSCDKTHTGGGGSGGGGSGGGGSLSDSRVLWAPAEAHPLSPQGHPARLHRIVPRLRDVFGWGNLTCPICKGLFTAINLGLKKEPNVARVGSVAIKLCNLLKIAPPAVCQSIVHLFEDDMVEVWRRSVLSPSEACGLLLGSTCGHWDIFSSWNISLPTVPKPPPKPPSPPAPGAPVSRILFLTDLHWDHDYLEGTDPDCADPLCCRRGSGLPPASRPGAGYWGEYSKCDLPLRTLESLLSGLGPAGPFDMVYWTGDIPAHDVWHQTRQDQLRALTTVTALVRKFLGPVPVYPAVGNHESTPVNSFPPPFIEGNHSSRWLYEAMAKAWEPWLPAEALRTLRIGGFYALSPYPGLRLISLNMNFCSRENFWLLINSTDPAGQLQWLVGELQAAEDRGDKVHIIGHIPPGHCLKSWSWNYYRIVARYENTLAAQFFGHTHVDEFEVFYDEETLSRPLAVAFLAPSATTYIGLNPGYRVYQIDGNYSGSSHVVLDHETYILNLTQANIPGAIPHWQLLYRARETYGLPNTLPTAWHNLVYRMRGDMQLFQTFWFLYHKGHPPSEPCGTPCRLATLCAQLSARADSPALCRHLMPDGSLPEAQSLWPRPLFC
notes: also called Fab HC-GS3-ASM
B5: Fab GS3-PPT1 (other)
light: B1 light
heavy: EVQLVQSGAEVKKPGESLKISCKGSGYSFMNYWLGWVRQMPGKGLEWMGDIYPGGDYPTYSEKFKVQVTISADKSISTAYLQLSSLKASDTAMYYCARSGNYDEVAYWGQGTLVTVSSASTKGPSVFPLAPSSKSTSGGTAALGCLVKDYFPEPVTVSWNSGALTSGVHTFPAVLQSSGLYSLSSVVTVPSSSLGTQTYICNVNHKPSNTKVDKKVEPKSCDKTHTGGGGSGGGGSGGGGSDPPAPLPLVIWHGMGDSCCNPLSMGAIKKMVEKKIPGIYVLSLEIGKTLMEDVENSFFLNVNSQVTTVCQALAKDPKLQQGYNAMGFSQGGQFLRAVAQRCPSPPMINLISVGGQHQGVFGLPRCPGESSHICDFIRKTLNAGAYSKVVQERLVQAEYWHDPIKEDVYRNHSIFLADINQERGINESYKKNLMALKKFVMVKFLNDSIVDPVDSEWFGFYRSGQAKETIPLQETSLYTQDRLGLKEMDNAGQLVFLATEGDHLQLSEEWFYAHIIPFLG
notes: also called Fab HC-GS3-PPT1
B6: Fab GS3-ARSA (other)
light: B1 light
heavy: EVQLVQSGAEVKKPGESLKISCKGSGYSFMNYWLGWVRQMPGKGLEWMGDIYPGGDYPTYSEKFKVQVTISADKSISTAYLQLSSLKASDTAMYYCARSGNYDEVAYWGQGTLVTVSSASTKGPSVFPLAPSSKSTSGGTAALGCLVKDYFPEPVTVSWNSGALTSGVHTFPAVLQSSGLYSLSSVVTVPSSSLGTQTYICNVNHKPSNTKVDKKVEPKSCDKTHTGGGGSGGGGSGGGGSRPPNIVLIFADDLGYGDLGCYGHPSSTTPNLDQLAAGGLRFTDFYVPVSLCTPSRAALLTGRLPVRMGMYPGVLVPSSRGGLPLEEVTVAEVLAARGYLTGMAGKWHLGVGPEGAFLPPHQGFHRFLGIPYSHDQGPCQNLTCFPPATPCDGGCDQGLVPIPLLANLSVEAQPPWLPGLEARYMAFAHDLMADAQRQDRPFFLYYASHHTHYPQFSGQSFAERSGRGPFGDSLMELDAAVGTLMTAIGDLGLLEETLVIFTADNGPETMRMSRGGCSGLLRCGKGTTYEGGVREPALAFWPGHIAPGVTHELASSLDLLPTLAALAGAPLPNVTLDGFDLSPLLLGTGKSPRQSLFFYPSYPDEVRGVFAVRTGKYKAHFFTQGSAHSDTTADPACHASSSLTAHEPPLLYDLSKDPGENYNLLGGVAGATPEVLQALKQLQLLKAQLDAAVTFGPSQVARGEDPALQICCHPGCTPRPACCHCPDPHA
notes: also called Fab HC-GS3-ARSA

Each binder was assayed against T2, recombinant human TfR (r human TfR: Sino Biological Inc.), hTfR extracellular region with a histidine tag at … (human, UniProt P02786 89-760) (assay: BLI (Octet RED96), His-tagged TfR ECD on Ni-NTA sensor).
T2 construct: Bought from Sino Biological; also called r human TfR-ECD (Histag); recombinant hTfR; not shown: histidine tag at the N-terminus

Binder	kon [M⁻¹ s⁻¹]	Kd [nM]	koff [s⁻¹]
B1	293000	–	–
B2	623000	< 0.001	< 1e-07
B3	721000	< 0.001	< 1e-07
B4	526000	0.0689	3.63e-05
B5	417000	< 0.001	< 1e-07
B6	670000	–	–

Target: T1, recombinant monkey TfR (r monkey TfR: …)
Experiment: as above

Binder	Kd [nM]	koff [s⁻¹]	kon [M⁻¹ s⁻¹]
B1	1.32	0.000292	221000
B2	–	–	299000
B3	< 0.001	< 1e-07	388000
B4	2	0.000549	274000
B6	1.09	0.000281	258000
